Measurements from patent publication US20200317768A1 (published 2020).
Residue numbers refer to the chain shown, from its start.

B1: M103205H795-MY064/M103202L889-SK1 (antibody, human IgG1, kappa)
heavy: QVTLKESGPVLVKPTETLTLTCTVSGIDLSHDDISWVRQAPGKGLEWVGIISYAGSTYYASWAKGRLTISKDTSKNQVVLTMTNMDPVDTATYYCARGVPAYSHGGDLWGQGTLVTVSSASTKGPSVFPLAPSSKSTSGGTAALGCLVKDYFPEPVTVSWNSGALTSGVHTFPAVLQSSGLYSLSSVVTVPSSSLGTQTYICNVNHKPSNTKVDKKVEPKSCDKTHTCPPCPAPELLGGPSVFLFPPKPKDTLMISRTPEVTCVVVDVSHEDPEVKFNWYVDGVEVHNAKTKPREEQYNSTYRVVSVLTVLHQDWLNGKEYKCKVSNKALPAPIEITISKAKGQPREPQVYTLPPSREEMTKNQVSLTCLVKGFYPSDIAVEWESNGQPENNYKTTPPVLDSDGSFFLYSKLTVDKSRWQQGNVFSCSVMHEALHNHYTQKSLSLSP
light: DIVMTQSPATLSLSPGERATLSCTSSQSVYHANWLSWFQQKPGQPPKLLIYWASTLAYGVPSRFSGSGSGTDFTLTISSLQPEDAATYYCAGGYGGGRYAFGQGTKVEIKRTVAAPSVFIFPPSDEQLKSGTASVVCLLNNFYPREAKVQWKVDNALQSGNSQESVTEQDSKDSTYSLSSTLTLSKADYEKHKVYACEVTHQGLSSPVTKSFNRGEC
notes: Substitution put into M103205H795-SG1
B2: M103205H795-MY070/M103202L889-SK1 (antibody, human IgG1, kappa)
heavy: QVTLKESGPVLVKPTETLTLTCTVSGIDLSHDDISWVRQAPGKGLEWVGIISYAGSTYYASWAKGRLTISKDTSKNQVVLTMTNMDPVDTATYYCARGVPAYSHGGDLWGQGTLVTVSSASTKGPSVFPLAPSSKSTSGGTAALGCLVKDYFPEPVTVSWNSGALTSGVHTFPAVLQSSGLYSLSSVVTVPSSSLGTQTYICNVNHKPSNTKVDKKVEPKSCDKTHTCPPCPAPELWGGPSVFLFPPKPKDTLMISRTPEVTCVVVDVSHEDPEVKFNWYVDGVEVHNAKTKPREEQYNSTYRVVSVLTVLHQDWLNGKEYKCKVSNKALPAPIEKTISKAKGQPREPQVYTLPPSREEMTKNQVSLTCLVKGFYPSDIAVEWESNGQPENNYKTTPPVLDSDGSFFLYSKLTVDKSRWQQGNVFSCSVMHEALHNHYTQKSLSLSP
light: B1 light
notes: as for B1
B3: M103205H795-MY073/M103202L889-SK1 (antibody, human IgG1, kappa)
heavy: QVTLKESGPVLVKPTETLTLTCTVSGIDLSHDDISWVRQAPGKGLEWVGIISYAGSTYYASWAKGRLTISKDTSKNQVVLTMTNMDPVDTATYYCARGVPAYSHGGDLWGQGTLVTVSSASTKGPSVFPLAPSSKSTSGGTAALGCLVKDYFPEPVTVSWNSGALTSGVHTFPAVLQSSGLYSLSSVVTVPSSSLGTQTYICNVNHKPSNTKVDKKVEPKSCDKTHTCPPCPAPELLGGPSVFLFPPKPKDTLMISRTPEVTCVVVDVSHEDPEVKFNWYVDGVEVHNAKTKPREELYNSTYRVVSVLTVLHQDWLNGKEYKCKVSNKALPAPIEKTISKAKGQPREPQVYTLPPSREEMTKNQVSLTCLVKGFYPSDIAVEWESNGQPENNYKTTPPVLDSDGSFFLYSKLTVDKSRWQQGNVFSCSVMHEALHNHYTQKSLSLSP
light: B1 light
notes: as for B1
B4: M103205H795-MY196/M103202L889-SK1 (antibody, human IgG1, kappa)
heavy: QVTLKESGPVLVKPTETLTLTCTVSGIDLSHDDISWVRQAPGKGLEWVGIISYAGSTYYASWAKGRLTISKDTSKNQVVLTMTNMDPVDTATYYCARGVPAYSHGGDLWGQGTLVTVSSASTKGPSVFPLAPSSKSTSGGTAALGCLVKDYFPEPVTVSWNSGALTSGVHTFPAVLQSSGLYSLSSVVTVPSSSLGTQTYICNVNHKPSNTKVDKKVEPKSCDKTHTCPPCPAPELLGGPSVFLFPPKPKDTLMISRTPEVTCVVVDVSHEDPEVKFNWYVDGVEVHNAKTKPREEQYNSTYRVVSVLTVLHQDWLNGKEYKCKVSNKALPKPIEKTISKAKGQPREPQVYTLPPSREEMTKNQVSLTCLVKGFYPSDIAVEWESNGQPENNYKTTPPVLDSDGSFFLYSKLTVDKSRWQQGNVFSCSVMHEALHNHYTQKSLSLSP
light: B1 light
notes: as for B1
B5: M103205H795-MY068/M103202L889-SK1 (antibody, human IgG1, kappa)
heavy: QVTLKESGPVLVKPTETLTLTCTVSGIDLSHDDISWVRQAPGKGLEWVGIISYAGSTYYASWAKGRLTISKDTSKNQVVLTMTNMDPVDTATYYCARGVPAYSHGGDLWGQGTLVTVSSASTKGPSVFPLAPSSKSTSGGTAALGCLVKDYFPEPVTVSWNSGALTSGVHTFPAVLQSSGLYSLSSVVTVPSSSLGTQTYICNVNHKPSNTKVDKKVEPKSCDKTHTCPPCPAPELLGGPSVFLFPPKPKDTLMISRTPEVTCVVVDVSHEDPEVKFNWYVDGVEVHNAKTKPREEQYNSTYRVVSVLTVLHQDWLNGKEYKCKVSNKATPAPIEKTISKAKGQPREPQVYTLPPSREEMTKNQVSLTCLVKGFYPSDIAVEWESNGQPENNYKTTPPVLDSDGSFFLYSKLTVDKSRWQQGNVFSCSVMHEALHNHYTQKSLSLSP
light: B1 light
notes: as for B1
B6: M103205H795-MY071/M103202L889-SK1 (antibody, human IgG1, kappa)
heavy: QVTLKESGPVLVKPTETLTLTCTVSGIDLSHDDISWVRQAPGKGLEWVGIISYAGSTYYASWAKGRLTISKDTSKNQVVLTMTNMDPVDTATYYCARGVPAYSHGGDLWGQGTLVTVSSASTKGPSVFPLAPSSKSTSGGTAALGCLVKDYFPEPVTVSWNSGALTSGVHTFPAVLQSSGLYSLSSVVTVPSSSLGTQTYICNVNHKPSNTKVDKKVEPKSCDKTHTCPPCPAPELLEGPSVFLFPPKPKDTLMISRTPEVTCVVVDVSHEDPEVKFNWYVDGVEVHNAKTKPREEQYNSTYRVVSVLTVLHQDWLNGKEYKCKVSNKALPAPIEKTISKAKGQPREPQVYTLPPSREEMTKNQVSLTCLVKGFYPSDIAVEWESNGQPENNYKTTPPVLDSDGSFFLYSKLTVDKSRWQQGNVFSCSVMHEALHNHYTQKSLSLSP
light: B1 light
notes: as for B1
B7: M103205H795-MY072/M103202L889-SK1 (antibody, human IgG1, kappa)
heavy: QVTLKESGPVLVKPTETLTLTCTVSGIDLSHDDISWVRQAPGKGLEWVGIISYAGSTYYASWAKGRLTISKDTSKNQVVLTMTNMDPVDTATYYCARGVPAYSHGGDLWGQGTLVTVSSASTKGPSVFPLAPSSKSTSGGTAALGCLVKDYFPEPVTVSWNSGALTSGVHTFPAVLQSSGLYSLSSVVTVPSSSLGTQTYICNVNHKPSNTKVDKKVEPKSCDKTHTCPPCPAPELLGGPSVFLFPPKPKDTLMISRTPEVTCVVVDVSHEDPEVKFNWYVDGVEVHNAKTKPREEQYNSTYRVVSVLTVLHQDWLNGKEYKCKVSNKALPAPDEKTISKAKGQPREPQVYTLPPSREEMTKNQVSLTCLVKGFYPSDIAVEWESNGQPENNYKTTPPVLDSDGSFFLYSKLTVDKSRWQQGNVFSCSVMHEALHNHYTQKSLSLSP
light: B1 light
notes: as for B1
B8: M103205H795-MY065/M103202L889-SK1 (antibody, human IgG1, kappa)
heavy: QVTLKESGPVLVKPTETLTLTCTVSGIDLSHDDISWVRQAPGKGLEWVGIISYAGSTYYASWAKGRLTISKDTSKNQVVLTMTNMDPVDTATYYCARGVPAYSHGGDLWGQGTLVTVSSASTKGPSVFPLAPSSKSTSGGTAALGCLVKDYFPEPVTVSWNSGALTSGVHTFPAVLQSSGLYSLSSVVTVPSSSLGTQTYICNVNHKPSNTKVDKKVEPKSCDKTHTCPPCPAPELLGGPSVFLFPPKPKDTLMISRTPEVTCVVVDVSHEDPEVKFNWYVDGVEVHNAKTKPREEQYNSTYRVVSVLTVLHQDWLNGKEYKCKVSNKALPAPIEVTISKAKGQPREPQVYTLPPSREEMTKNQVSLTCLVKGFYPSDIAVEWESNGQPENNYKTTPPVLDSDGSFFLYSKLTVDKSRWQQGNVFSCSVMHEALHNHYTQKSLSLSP
light: B1 light
notes: as for B1
B9: M103205H795-MY124/M103202L889-SK1 (antibody, human IgG1, kappa)
heavy: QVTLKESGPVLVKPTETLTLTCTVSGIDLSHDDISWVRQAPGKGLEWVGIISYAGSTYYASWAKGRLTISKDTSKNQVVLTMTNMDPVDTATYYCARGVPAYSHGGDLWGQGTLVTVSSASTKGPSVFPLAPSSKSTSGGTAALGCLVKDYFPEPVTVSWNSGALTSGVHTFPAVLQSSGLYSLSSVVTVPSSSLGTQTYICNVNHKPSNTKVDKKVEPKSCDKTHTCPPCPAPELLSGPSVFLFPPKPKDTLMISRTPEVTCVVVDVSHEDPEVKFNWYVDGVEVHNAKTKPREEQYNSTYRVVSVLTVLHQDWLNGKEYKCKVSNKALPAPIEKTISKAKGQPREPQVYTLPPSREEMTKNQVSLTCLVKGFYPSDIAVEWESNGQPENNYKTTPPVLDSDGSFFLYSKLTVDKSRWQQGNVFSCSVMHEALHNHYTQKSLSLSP
light: B1 light
notes: as for B1
B10: M103205H795-MY069/M103202L889-SK1 (antibody, human IgG1, kappa)
heavy: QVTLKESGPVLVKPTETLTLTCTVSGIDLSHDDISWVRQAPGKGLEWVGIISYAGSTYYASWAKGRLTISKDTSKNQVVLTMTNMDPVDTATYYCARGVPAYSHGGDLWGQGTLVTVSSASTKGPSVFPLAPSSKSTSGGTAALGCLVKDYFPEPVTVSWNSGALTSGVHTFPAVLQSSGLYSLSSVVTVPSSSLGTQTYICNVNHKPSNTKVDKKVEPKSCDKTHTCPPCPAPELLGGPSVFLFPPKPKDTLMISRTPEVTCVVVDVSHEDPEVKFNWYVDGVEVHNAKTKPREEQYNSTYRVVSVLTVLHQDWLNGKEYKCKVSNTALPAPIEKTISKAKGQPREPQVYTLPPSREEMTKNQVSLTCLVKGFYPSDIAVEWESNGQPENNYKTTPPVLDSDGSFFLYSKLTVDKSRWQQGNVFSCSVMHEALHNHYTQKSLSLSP
light: B1 light
notes: as for B1

Target: T1, cynomolgus monkey FcγRIIa1 extracellular domain, His-tagged (cynomolgus monkey)
T1 construct: also called cyno FcγRIIa1; cynoFcgRIIa1
T1 chain: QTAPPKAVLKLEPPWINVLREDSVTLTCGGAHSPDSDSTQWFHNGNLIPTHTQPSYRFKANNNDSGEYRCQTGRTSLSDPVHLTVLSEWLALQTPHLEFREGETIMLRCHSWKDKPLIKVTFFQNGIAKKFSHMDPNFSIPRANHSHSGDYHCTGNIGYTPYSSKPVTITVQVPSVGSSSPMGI
Experiment: SPR, antibody captured, FcgR analyte

Q: B1 was tested. Which Kd did it give?
A: 2400 nM

Q: Which Kd does the source give for B2 here?
A: 2300 nM

Q: With B3 as the binder, how does the Kd read?
A: 1200 nM

Q: B4 was tested. Which Kd did it give?
A: 2500 nM

Q: Which Kd does the source give for B5 here?
A: 2100 nM

Q: Which Kd does the source give for B6 here?
A: 5000 nM

Q: With B7 as the binder, how does the Kd read?
A: 1000 nM

Q: B8 was tested. Which Kd did it give?
A: 2300 nM

Q: Which Kd does the source give for B9 here?
A: 2600 nM

Q: B10 was tested. Which Kd did it give?
A: 1600 nM

Target: T2, cynomolgus monkey FcγRIIa2 extracellular domain, His-tagged (cynomolgus monkey)
T2 construct: also called cyno FcγRIIa2; cynoFcgRIIa2
T2 chain: T1 chain with P95T, T121A, I127K, A128S, K130N, D135N, R142Q
Experiment: SPR, antibody captured, FcgR analyte

Q: With B1 as the binder, how does the Kd read?
A: 2800 nM

Q: For B2, which Kd is on record?
A: 2500 nM

Q: B3 was tested. Which Kd did it give?
A: 1300 nM

Q: B4 was tested. Which Kd did it give?
A: 3000 nM

Q: How did the Kd turn out when B5 was run?
A: 2700 nM

Q: B6 was tested. Which Kd did it give?
A: 3700 nM

Q: B7 was tested. Which Kd did it give?
A: 1200 nM

Q: With B8 as the binder, how does the Kd read?
A: 2800 nM

Q: Which Kd does the source give for B9 here?
A: 3100 nM

Q: For B10, which Kd is on record?
A: 1600 nM

Target: T3, cynomolgus monkey FcγRIIa3 extracellular domain, His-tagged (cynomolgus monkey)
T3 construct: also called cyno FcγRIIa3; cynoFcgRIIa3
T3 chain: T1 chain with P95T, T121A, A128S, H133P, D135N
Experiment: SPR, antibody captured, FcgR analyte

Q: How did the Kd turn out when B1 was run?
A: 59000 nM

Q: B2 was tested. Which Kd did it give?
A: 4700 nM

Q: How did the Kd turn out when B3 was run?
A: 5100 nM

Q: How did the Kd turn out when B4 was run?
A: 23000 nM

Q: How did the Kd turn out when B5 was run?
A: 5700 nM

Q: For B6, which Kd is on record?
A: 9200 nM

Q: With B7 as the binder, how does the Kd read?
A: 2600 nM

Q: For B8, which Kd is on record?
A: 4200 nM

Q: With B9 as the binder, how does the Kd read?
A: 12000 nM

Q: With B10 as the binder, how does the Kd read?
A: 6500 nM

Target: T4, cynomolgus monkey FcγRIIb extracellular domain, His-tagged (cynomolgus monkey)
T4 construct: also called cyno FcγRIIb; cynoFcγRIIb
T4 chain: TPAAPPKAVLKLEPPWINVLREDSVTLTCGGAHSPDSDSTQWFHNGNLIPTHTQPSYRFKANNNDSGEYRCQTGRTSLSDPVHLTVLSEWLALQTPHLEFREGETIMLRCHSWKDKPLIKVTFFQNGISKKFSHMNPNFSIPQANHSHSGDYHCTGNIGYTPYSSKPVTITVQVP
Experiment: SPR, antibody captured, FcgR analyte

Q: For B1, which Kd is on record?
A: 1100 nM

Q: For B2, which Kd is on record?
A: 1200 nM

Q: Which Kd does the source give for B3 here?
A: 670 nM

Q: How did the Kd turn out when B4 was run?
A: 2400 nM

Q: B5 was tested. Which Kd did it give?
A: 1000 nM

Q: For B6, which Kd is on record?
A: 2500 nM

Q: How did the Kd turn out when B7 was run?
A: 480 nM

Q: Which Kd does the source give for B8 here?
A: 1300 nM

Q: How did the Kd turn out when B9 was run?
A: 2200 nM

Q: With B10 as the binder, how does the Kd read?
A: 730 nM

Target: T5, cynomolgus monkey FcγRIIIaS extracellular domain, His-tagged (cynomolgus monkey, UniProt Q8SPW2 21-206 at identity 1.00))
T5 construct: also called cyno FcγRIIIaS; cynoFcγRIIIaS
T5 chain: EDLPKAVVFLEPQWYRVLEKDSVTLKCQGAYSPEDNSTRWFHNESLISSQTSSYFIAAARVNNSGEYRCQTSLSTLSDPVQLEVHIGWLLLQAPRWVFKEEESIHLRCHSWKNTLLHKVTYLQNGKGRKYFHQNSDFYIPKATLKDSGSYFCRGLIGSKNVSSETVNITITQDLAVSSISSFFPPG
Experiment: SPR, antibody captured, FcgR analyte

Q: For B1, which Kd is on record?
A: 120 nM

Q: For B2, which Kd is on record?
A: 490 nM

Q: With B3 as the binder, how does the Kd read?
A: 170 nM

Q: For B4, which Kd is on record?
A: 600 nM

Q: For B5, which Kd is on record?
A: 580 nM

Q: How did the Kd turn out when B6 was run?
A: 280 nM

Q: How did the Kd turn out when B7 was run?
A: 53 nM

Q: For B8, which Kd is on record?
A: 110 nM

Q: For B9, which Kd is on record?
A: 1300 nM

Q: B10 was tested. Which Kd did it give?
A: 86 nM

These binders were tested against T6, human FcγRIIaH extracellular domain, His-tagged (human, UniProt P12318 34-217) (assay: SPR, antibody captured, FcgR analyte).
T6 construct: also called human FcγRIIa (type H); FcgRIIaH
T6 sequence: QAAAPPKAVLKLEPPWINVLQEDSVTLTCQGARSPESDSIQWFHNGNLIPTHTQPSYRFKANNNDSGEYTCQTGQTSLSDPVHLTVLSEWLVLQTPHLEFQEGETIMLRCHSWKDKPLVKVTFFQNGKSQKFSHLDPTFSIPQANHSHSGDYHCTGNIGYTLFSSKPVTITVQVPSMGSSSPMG

Q: How did the Kd turn out when B1 was run?
A: 500 nM

Q: For B2, which Kd is on record?
A: 500 nM

Q: How did the Kd turn out when B3 was run?
A: 240 nM

Q: How did the Kd turn out when B4 was run?
A: 480 nM

Q: Which Kd does the source give for B5 here?
A: 370 nM

Q: How did the Kd turn out when B6 was run?
A: 400 nM

Q: For B7, which Kd is on record?
A: 250 nM

Q: How did the Kd turn out when B8 was run?
A: 520 nM

Q: Which Kd does the source give for B9 here?
A: 140 nM

Q: For B10, which Kd is on record?
A: 440 nM

The binders below were run against T7, human FcγRIIb extracellular domain, His-tagged (human, UniProt P31994 43-217) (assay: SPR, antibody captured, FcgR analyte).
T7 construct: also called FcgRIIb (human)
T7 sequence: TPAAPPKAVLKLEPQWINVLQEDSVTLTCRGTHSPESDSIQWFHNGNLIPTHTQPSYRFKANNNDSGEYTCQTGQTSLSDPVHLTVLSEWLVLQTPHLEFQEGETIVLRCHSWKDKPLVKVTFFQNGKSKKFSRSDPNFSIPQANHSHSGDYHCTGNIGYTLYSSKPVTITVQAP

Q: Which Kd does the source give for B1 here?
A: 2400 nM

Q: With B2 as the binder, how does the Kd read?
A: 2600 nM

Q: For B3, which Kd is on record?
A: 2000 nM

Q: Which Kd does the source give for B4 here?
A: 6200 nM

Q: With B5 as the binder, how does the Kd read?
A: 2100 nM

Q: For B6, which Kd is on record?
A: 8100 nM

Q: How did the Kd turn out when B7 was run?
A: 1500 nM

Q: For B8, which Kd is on record?
A: 1900 nM

Q: Which Kd does the source give for B9 here?
A: 9200 nM

Q: How did the Kd turn out when B10 was run?
A: 1600 nM

The binders below were run against T8, human FcγRIIIaV extracellular domain, His-tagged (human, UniProt P08637 17-208) (assay: SPR, antibody captured, FcgR analyte).
T8 construct: also called FcgRIIIaV
T8 sequence (P08637 17-208 F176V): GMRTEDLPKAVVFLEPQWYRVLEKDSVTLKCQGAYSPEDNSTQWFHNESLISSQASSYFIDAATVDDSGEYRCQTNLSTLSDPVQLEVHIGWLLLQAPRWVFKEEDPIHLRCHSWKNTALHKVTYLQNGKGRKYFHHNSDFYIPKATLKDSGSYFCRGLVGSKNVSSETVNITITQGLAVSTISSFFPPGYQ

Q: B1 was tested. Which Kd did it give?
A: 220 nM

Q: With B2 as the binder, how does the Kd read?
A: 700 nM

Q: For B3, which Kd is on record?
A: 340 nM

Q: With B4 as the binder, how does the Kd read?
A: 2200 nM

Q: For B5, which Kd is on record?
A: 1400 nM

Q: Which Kd does the source give for B6 here?
A: 510 nM

Q: How did the Kd turn out when B7 was run?
A: 120 nM

Q: How did the Kd turn out when B8 was run?
A: 230 nM

Q: For B9, which Kd is on record?
A: 5200 nM

Q: With B10 as the binder, how does the Kd read?
A: 240 nM
